The target in data set [1] is T1, C12-279 L260R (synthetic construct, L260R).
T1 chain: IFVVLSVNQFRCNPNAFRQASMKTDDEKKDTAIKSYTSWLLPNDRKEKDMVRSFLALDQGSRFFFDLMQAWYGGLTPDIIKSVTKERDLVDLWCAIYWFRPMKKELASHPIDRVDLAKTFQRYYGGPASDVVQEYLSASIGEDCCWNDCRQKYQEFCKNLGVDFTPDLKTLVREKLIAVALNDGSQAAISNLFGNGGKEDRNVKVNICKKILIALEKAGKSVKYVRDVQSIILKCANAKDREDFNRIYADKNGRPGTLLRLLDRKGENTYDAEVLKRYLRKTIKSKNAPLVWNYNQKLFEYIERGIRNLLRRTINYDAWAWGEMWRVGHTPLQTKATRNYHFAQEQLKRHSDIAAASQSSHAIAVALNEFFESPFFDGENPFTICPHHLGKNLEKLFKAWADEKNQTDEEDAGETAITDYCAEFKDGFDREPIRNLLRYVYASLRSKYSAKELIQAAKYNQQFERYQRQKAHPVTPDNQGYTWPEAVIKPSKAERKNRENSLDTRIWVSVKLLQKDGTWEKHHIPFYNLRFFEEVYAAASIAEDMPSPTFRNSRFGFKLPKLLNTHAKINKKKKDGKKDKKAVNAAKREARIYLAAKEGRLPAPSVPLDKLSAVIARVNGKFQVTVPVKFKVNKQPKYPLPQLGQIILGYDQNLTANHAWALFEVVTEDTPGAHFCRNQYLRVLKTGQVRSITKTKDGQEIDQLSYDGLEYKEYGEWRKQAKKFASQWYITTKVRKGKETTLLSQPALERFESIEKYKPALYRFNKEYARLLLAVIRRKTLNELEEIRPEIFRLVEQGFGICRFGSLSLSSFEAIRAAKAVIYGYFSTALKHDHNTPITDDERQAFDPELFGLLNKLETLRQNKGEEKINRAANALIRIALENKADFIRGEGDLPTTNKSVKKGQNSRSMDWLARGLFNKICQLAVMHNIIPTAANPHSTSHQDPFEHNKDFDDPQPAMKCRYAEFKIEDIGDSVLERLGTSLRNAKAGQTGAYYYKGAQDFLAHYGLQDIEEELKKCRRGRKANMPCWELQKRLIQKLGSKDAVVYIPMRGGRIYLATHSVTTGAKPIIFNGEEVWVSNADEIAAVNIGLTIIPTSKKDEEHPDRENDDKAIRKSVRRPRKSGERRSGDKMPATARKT
Kind of data set: cell_activity; PAM TTG; +/-0.14. Here is the method:
Transfection: transfection was performed 12-14 h after plating. 1.5 μL PEI (Yeasen Biotechnology, 40815ES03, Polyethylenimine Linear (PEI) MW25000) and 500 ng mutation clone plasmid were added to 100 μL Opti-MEM per well of the 24-well plate, mixed, and added to the NAAN cell line for cell transfection after placing at room temperature for 20 min. After overnight transfection, a fresh culture medium was replaced, and the culture was continued for 72 h, followed by flow cytometry. Editing efficiencies of different mutant clones were characterized by the proportion of GFP-positive cells.
Editing efficiency of some selected mutants was tested in Reporter3 cell line using the same manner as described for the NAAN reporter system, except that the cell line was changed from NAAN cell line to Reporter3 cell line.

Data set [2] has as its target T2, C12-279 Mut-02-1-426-846-858-860 (C12-279-V4) (synthetic construct, I1R,Q186R,D352R,D426R,846R,858R,L860R).
T2 chain: T1 chain with I1R, Q186R, R260L, D352R, D426R, F846R, E858R, L860R
Kind of data set: cell_activity; PAM TTG; mutant PAM 5'-WTN-3' by Example 17.

1 molecule from patent publication US20260009052, “CAS12 PROTEINS AND USES THEREOF” (GUANGZHOU REFORGENE MEDICINE CO., LTD., published 2026) can be followed below.

Numbering of substitutions follows the chain as printed.

B1: C12-279 Reporter3 sgRNA ; Reporter3 target (ssRNA ; dsDNA)
RNA: GUAAUGCGUCUCCCAUUGACGCCUCACCUCGCGACGCAAUGAUG
DNA 1: CTCACCTCGCGACGCAATGATG
DNA 2: CATCATTGCGTCGCGAGGTGAG
Consider B1, for which the binding signal in data set [1] is 0.66 fold of C12-279; in data set [2], 3.88 fold of C12-279.
